{"source": "patent US8003609B2", "about": "“Method for ameliorating pain by modification of NMDA receptors through inhibition of Src” (The Hospital for Sick Children, priority 2004, dated 2011)", "molecules": {"B1": {"name": "ND2.1-GST: GST fusion protein containing amino acids 239-321 of human ND2 (SEQ ID NO:7) (protein)", "chain": "WLTPLIPSTLLSLGGLPPLTGFLPKWTIIEEFTKNNSLIIPTIMATITLLNLYFYLRLIYSTSITLLPMSNNVKMKWQFE", "modifications": "left off: a dimerising Fc or GST"}, "B2": {"name": "ND2.3-GST: GST fusion protein containing amino acids 1-188 of human ND2 (SEQ ID NO:13) (protein)", "chain": "MNPLAQPVIYSTIFAGTLITALSSHWFFTWVGLEMNMLAFIPVLTKKMNPRSTEAAIKYFLTQATASMILLMAILFNNMLSGQWTMTNTTNQYSSLMIMMAMAMKLGMAPFHFWVPEVTQGTPLTSGLLLLTWQKLAPISIMYQISPSLNVSLLLTLSILSIMAGSWGGLNQTQLRKILAYSSITHMG", "modifications": "left off: a dimerising Fc or GST"}}, "key": {"NMDAR": {"tested_on": "NMDAR", "assay": "mEPSC whole cell recordings in cultured hippocampal neurons, NMDAR component", "type": "cell-based, rat", "description": "(§1) Fetal rat hippocampal neurons were prepared, cultured, and used for electrophysiological recordings 12-17 days after plating. Methods for whole cell recordings are described in Pelkey et al. (Neuron 34:127-138 2002).\n(§2) In contrast, in control experiments administering EPQ(pY)EEIPIA (SEQ ID NO:5) increased the NMDAR component of mEPSCs by 172±28% and application of Src40-58 decreased the NMDAR component to 56±4% (FIGS. 5D-F). […] Composite traces are shown in black, the NMDAR component in dark grey, and the AMPAR component in light grey. Scale bars are 50 ms/10 pA. […] NMDA component data were calculated as Q20′/Q2′, and AMPA component data were calculated as A20′/A2′. […] An * indicates a significant difference, Student's t-test, p<0.05. Taking our results together, it is concluded that Src-dependent regulation of the activity of NMDARs depends on expression of ND2 through its anchoring of Src to the NMDAR complex."}, "AMPA receptor": {"tested_on": "AMPA receptor", "assay": "mEPSC whole cell recordings in cultured hippocampal neurons, AMPA receptor component", "type": "cell-based, rat", "conditions": "under the recording conditions used", "description": "as §1, §2"}, "Src unique domain": {"biological_target": "T1, Src unique domain (Mus musculus, UniProt P05480)", "T1 construct": "amino acids 4-82 (the Src unique domain); GST (N); made in house; host or cells: BL21 bacteria", "assay": "blot of ND2-GST fusion proteins probed with biotinylated Src unique domain", "type": "binding", "conditions": "GST fusion protein", "description": "(§3) Src, Fyn, and ND2 recombinant proteins were prepared. The cDNAs encoding the SH3 and SH2 domains of mouse n-Src and Fyn were PCR subcloned, ligated in frame into pGEX4T-1 (Amersham Pharmacia Biotech, Baie d'Urfé, Québec), and sequenced. These plasmids, as well as plasmids encoding the unique domains of Src and Fyn in pGEX2T'6, were transformed into BL21 bacteria, and GST fusion proteins were purified by glutathione affinity chromatography. To create the ND2.1, ND2.2, and ND2.3 GST fusion proteins, cDNAs encoding amino acids 239-321 (ND2.1-GST; SEQ ID NO:7), amino acids 189-238 (ND2.2-GST; SEQ ID NO:11), and amino acids 1-188 (ND2.3-GST; SEQ ID NO:13) of human ND2 were PCR subcloned and ligated into pGEX4T-1 (the nucleotide sequence encoding ND2 is SEQ ID NO:8 and the amino acid sequence is SEQ ID NO:9; the nucleotide sequences encoding ND2.1; ND2.2 and ND2.3 are SEQ ID NOS:6, 10 and 12, respectively). Using PCR-based single nucleotide mutagenesis, all cDNAs encoding ND2 fusion proteins were corrected for differences between mitochondrial and nuclear codons to prevent premature translation termination and protein truncation. All constructs were then confirmed by sequencing. The plasmids were transformed into bacteria, and GST fusion proteins were purified by glutathione affinity chromatography.\n(§4) Detailed protocols for in vitro binding assays, pull down assays, immunoblotting, and co-immunoprecipitation techniques can be found in Pelkey et al. (Neuron 34:127-138 2002).\nAs yeast two-hybrid screening may reveal false positive protein-protein interactions, the interaction between Src and ND2 was observed using an independent methodological approach. Direct binding in vitro between ND2 and Src was tested using recombinant proteins. A series of GST fusion proteins comprised of portions of ND2 that spanned the overlapping region found with the yeast two-hybrid screen were made (FIG. 1A). […]"}, "ND2.1-GST": {"biological_target": "T2, ND2.1-GST (Homo sapiens, UniProt P03891, A265T)", "T2 construct": "made in house; host or cells: bacteria", "assay": "in vitro binding of biotinylated Src peptides to ND2.1-GST (blot / dot blot)", "conditions": "biotinylated peptide, streptavidin-HRP detection", "description": "as §3\nSrc40-58 and scrambled Src peptides were biotinylated by incubating with Sulfo-NHS-Biotin (Pierce Chemical Co., Rockford, Ill.) for 30 minutes at room temperature (SEQ ID NO:4, Src protein). […] Bound probe was then detected on film using an ECL kit.\nTo detect the binding of ND2.1-GST with Src peptides, the ND2.1-GST fusion protein was purified on glutathione SEPHAROSE. […] Bound probe was then detected on film using an ECL kit (Amersham Pharmacia Biotech, Baie d'Urfé, Québec).\nSrc40-58, Src40-49, Src49-58, scrambled Src40-58, TAT-Src40-49, and scrambled TAT-Src40-49 peptides were biotinylated by incubating with Sulfo-NHS-Biotin (Pierce Chemical Co., Rockford, Ill.) for 30 minutes at room temperature. […] Bound probe was then detected on film using an ECL kit."}, "[1]": {"biological_target": "T3, association of Src with the NMDAR complexes (Rattus norvegicus, UniProt P11662)", "T3 construct": "from tissue; host or cells: rat brain post-synaptic density fraction", "T3 sequence (P11662 whole entry, other chains not shown)": "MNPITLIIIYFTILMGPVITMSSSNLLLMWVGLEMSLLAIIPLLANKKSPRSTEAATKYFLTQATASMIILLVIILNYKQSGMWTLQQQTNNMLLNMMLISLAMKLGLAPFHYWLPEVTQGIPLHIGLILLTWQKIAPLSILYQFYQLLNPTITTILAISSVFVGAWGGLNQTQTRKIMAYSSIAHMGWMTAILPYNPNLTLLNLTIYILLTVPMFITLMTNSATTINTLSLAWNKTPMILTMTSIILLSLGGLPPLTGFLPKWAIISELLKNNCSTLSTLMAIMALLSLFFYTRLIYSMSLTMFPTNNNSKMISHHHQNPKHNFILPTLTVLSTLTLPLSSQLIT", "assay": "co-immunoprecipitation of Src with NMDARs from PSD proteins", "type": "binding", "description": "as §4\n(§5) Post-synaptic density proteins (Kennedy et al. Proceedings of the National Academy of Science USA 80:7357-7361 1983) were prepared from rat brain as described in detail (Pelkey et al. Neuron 34:127-138 2002). Cellular fractionation of rat brain tissue into nuclear, heavy mitochondrial, light mitochondrial, microsomal, and cytosolic fractions was performed by differential centrifugation of tissue homogenate in 0.25 M sucrose/10 mM HEPES-NaOH, 1 mM EDTA, pH 7.4 with 2 μg each of aprotinin, pepstatin A, and leupeptin (Sigma, St. Louis, Mo.) at 4° C. Nuclei were pelleted by centrifugation at 1 000 g for 10 minutes, the supernatant was removed and spun at 3 000 g for 10 minutes to obtain a heavy mitochondrial pellet. The supernatant was removed and spun at 16 000 g for 15 minutes to obtain a light mitochondrial pellet. The supernatant was removed and spun at 100 000 g for 1 hour to obtain a microsomal pellet and the cytosolic fraction. All pellets were then resuspended in RIPA buffer (50 mM Tris pH 7.6, 150 mM NaCl, 1 mM EDTA, 1% NP-40, 2.5 mg/ml NaDOC, 1 mM Na3VO4 1 mM PMSF, and 2 μg/ml each of protease inhibitors). The light mitochondrial fraction was used in subsequent experiments. […]"}, "[2]": {"tested_on": "SH2 or SH3 domains of Src", "assay": "blot of ND2.1-GST probed with biotinylated SH2 and SH3 domains of Src", "type": "binding, mouse", "description": "(§6) Src, Fyn, and ND2 recombinant proteins were prepared. The cDNAs encoding the SH3 and SH2 domains of mouse n-Src and Fyn were PCR subcloned, ligated in frame into pGEX4T-1 (Amersham Pharmacia Biotech, Baie d'Urfé, Québec), and sequenced. These plasmids, as well as plasmids encoding the unique domains of Src and Fyn in pGEX2T'6, were transformed into BL21 bacteria, and GST fusion proteins were purified by glutathione affinity chromatography. To create the ND2.1, ND2.2, and ND2.3 GST fusion proteins, cDNAs encoding amino acids 239-321 (ND2.1-GST; SEQ ID NO:7), amino acids 189-238 (ND2.2-GST; SEQ ID NO:11), and amino acids 1-188 (ND2.3-GST; SEQ ID NO:13) of human ND2 were PCR subcloned and ligated into pGEX4T-1 (the nucleotide sequence encoding ND2 is SEQ ID NO:8 and the amino acid sequence is SEQ ID NO:9; the nucleotide sequences encoding ND2.1; ND2.2 and ND2.3 are SEQ ID NOS:6, 10 and 12, respectively). Using PCR-based single nucleotide mutagenesis, all cDNAs encoding ND2 fusion proteins were corrected for differences between mitochondrial and nuclear codons to prevent premature translation termination and protein truncation. All constructs were then confirmed by sequencing. The plasmids were transformed into bacteria, and GST fusion proteins were purified by glutathione affinity chromatography. […]"}, "Fyn unique domain": {"biological_target": "T4, Fyn unique domain (Mus musculus, UniProt P39688)", "T4 construct": "plasmids encoding the unique domains of Src and Fyn in pGEX2T'6; GST (N); made in house; host or cells: BL21 bacteria", "T4 sequence (P39688 1-81 limits assumed)": "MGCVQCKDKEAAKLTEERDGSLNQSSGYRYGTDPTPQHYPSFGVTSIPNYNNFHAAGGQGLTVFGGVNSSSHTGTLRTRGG", "assay": "blot of ND2.1-GST probed with biotinylated Fyn unique domain", "type": "binding", "description": "as §6"}, "Src [3]": {"biological_target": "T5, Src (Rattus norvegicus, UniProt Q9WUD9)", "T5 construct": "from tissue; host or cells: rat brain post-synaptic density fraction", "assay": "pull down of Src from PSD preparations by ND2-GST fusion proteins", "type": "binding", "description": "as §4, §5"}, "Src [4]": {"biological_target": "Src (Homo sapiens, UniProt P12931)", "assay": "catalytic activity of Src in vitro", "type": "biochemical", "conditions": "not illustrated", "excerpt": "As ND2 alone is not catalytically active (J. E. Walker Quarterly Reviews of Biophysics 25(3):253-324 1992; Sazanov et al. Journal of Molecular Biology 302:455-464 2000; Sazanove et al. Biochemistry 39:7229-7235 2000), its functional role in the NMDAR complex was investigated. […] Thus, it is unlikely that ND2 is a target of Src or a regulator of Src kinase activity."}}, "note": "Square brackets hold non-standard residues; d marks the D form. Ends that are not written are not given here. pY = N[C@@H](Cc1ccc(OP(=O)(O)O)cc1)C(=O)O"}
{"molecule": "EPQ(pY)EEIPIA (EPQ[pY]EEIPIA)", "values": [{"measurement": "NMDAR component of mEPSCs, increased by", "setting": "NMDAR; control experiments, cultured hippocampal neurons", "value": "172±28", "unit": "%"}, {"measurement": "NMDAR component of the mEPSCs", "setting": "NMDAR; neurons treated with chloramphenicol for 48 hours", "value": "not affected"}, {"measurement": "AMPA receptor component of the mEPSCs", "setting": "AMPA receptor", "value": "neither of these reagents affected"}]}
{"molecule": "ND2.2-GST: GST fusion protein containing amino acids 189-238 of human ND2 (SEQ ID NO:11) (WMMAVLPYNPNMTILNLTIYIILTTTAFLLLNLNSSTTTLLLSRTWNKLT; also: GST fusion protein)", "values": [{"measurement": "binding to the unique domain of Src", "setting": "Src unique domain", "value": "did not bind"}]}
{"molecule": "Src40-49: peptide, 10 amino acid residues, corresponding approximately to amino acid positions 40-49 of the Src unique domain (SEQ ID NO:1) (KPASADGHR; listed as Homo sapiens)", "values": [{"measurement": "binding to ND2.1-GST", "setting": "ND2.1-GST", "value": "interacts with ND2"}]}
{"molecule": "Src50-58: Src49-58: peptide comprising amino acid residues 49-58 of SEQ ID NO:4; printed Src50-58 in the summary (PSAAFAPAAA; listed as Homo sapiens)", "values": [{"measurement": "binding to ND2.1-GST", "setting": "ND2.1-GST", "value": "did not interact"}]}
{"molecule": "B1", "values": [{"measurement": "co-immunoprecipitation of Src with NMDARs", "setting": "[1]", "value": "suppressed"}, {"measurement": "binding to the unique domain of Src", "setting": "Src unique domain", "value": "bound"}, {"measurement": "binding to the SH2 or SH3 domains of Src", "setting": "[2]", "value": "did not bind"}, {"measurement": "interaction in vitro with the Fyn unique domain", "setting": "Fyn unique domain", "value": "did not interact"}, {"measurement": "pulls Src from PSD preparations", "setting": "Src [3]", "value": "pulls Src"}, {"measurement": "catalytic activity of Src in vitro", "setting": "Src [4]", "value": "did not alter"}]}
{"molecule": "B2", "values": [{"measurement": "binding to the unique domain of Src", "setting": "Src unique domain", "value": "did not bind"}]}
